Legend:
Assay in all cases: ITC
[1] = target: TplEi R266A (Pseudomonas aeruginosa) (UniProt Q9I3K3)
[2] = target: TplEi E219A (Pseudomonas aeruginosa) (UniProt Q9I3K3)
[3] = target: TplEi S215A (Pseudomonas aeruginosa) (UniProt Q9I3K3)
[4] = target: TplEi (Pseudomonas aeruginosa) (UniProt Q9I3K3)

Row | Substance | Kd [1] | Kd [2] | Kd [3] | fold reduction in binding affinity against the wild-type peptide [4]
1 | A peptides (“L” peptide, TplE 82-108 plus EQVEVDD) (from UniProt Q9I3K2 82-115) | 46.9 µM | 35.5 µM | 7.8 µM | –
2 | “L” peptide W92A (from UniProt Q9I3K2 82-115) | – | – | – | 500 fold

— PMC5611513, “Structure-Based Prototype Peptides Targeting the Pseudomonas aeruginosa Type VI Secretion System Effector as a Novel Antibacterial Strategy” (Frontiers in Cellular and Infection Microbiology, 2017)
